Target: GHS-R receptor
Assay: cell-based or functional assay

GHS-R receptor, sequence (Q92847 whole entry): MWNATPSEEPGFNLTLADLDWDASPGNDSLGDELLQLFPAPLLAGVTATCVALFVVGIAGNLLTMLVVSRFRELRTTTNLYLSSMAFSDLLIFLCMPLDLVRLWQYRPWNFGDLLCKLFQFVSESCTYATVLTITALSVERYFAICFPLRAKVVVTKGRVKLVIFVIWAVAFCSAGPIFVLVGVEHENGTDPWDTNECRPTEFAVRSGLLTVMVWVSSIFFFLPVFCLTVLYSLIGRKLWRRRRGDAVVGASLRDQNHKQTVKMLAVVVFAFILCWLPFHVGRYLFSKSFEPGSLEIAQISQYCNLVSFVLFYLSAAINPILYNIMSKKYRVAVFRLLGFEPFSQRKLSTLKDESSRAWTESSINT

- EC50, calcium flux (FLIPR) % activation in GHS-R-expressing CHO-K1 cells: 85 nM
B1: Vitamin D3-PEG-maleimide carrier-conjugated ghrelin from Example 3 (peptide)
peptide: GSSFLSPEHQKAQQRKESKKPPAKLQPRC
modifications: n-octanoyl-Ser at position 3; Vitamin D3-PEG (2 kDa)-maleimide carrier coupled to the free thiol of the added C-terminal cysteine
